Source: paper PMC3834884, “A fully caninised anti-NGF monoclonal antibody for pain relief in dogs” (BMC Veterinary Research, 2013)

B1: NV-01 (caN2-HCA1-kLC1), fully caninised anti-NGF monoclonal antibody (antibody, V domains shown)
VH: EVQLVESGGGLVQPGGSLRLSCVASGFSLTNNNVNWVRQAPGKGLEWVGGVWAGGATDYNSALKSRFTISRDNAKNTVFLQMHSLRSEDTAVYYCARDGGYSSSTLYAMDAWGQGTSVTVSS
VL: DIVMTQSPASLSLSQGETVTITCRASEDIYNALAWYQQKPGQAPKLLIYNTDTLHTGVPSRFSGSGSGTDFSLTISSLEPEDVAVYYCQHYFHYPRTFGQGTKVELK
notes: caN2 heavy chain variable domain (caninised rat alphaD11 VH, modified framework); caninised alphaD11 light chain variable domain (caN-kLC1); canine kappa light chain constant domain; Canine IgG-A, kappa; also called caninised anti-NGF mAb; copies: 2 + 2
B2: caN-HCD2 + kLC1, caninised anti-NGF antibody with canine IgG heavy chain isotype D (antibody, V domains shown)
VH: EVQLVESGGDLVNPGGTLTLSCVVSGFSLTNNNVNWVRQALGRGLEWVGGVWAGGATDYNSALKSRLTITRDTSKSTVFLKMHSLQSEDTATYYCARDGGYSSSTLYAMDAWGQGTLVTVSS
VL: B1 VL
notes: caN heavy chain variable domain (first caninised alphaD11 VH); as the light chain variable domain of m1 (caN-kLC1); canine kappa light chain constant domain; Canine IgG-D, kappa; also called caN-HCD + kLC; ca-HCD2 + kLC1; source: CHO cells, transient transfection, supernatant; purified using Protein L
B3: caN-HCA1 + kLC1, caninised anti-NGF antibody with canine IgG heavy chain isotype A (antibody, V domains shown)
VH: B2 VH
VL: B1 VL
notes: caN heavy chain variable domain (first caninised alphaD11 VH); as the light chain variable domain of m1 (caN-kLC1); canine kappa light chain constant domain; Canine IgG-A, kappa; also called caN-HCA + kLC; type A anti-NGF antibody; source: CHO cells, transient transfection, supernatant; purified using Protein L
B4: caN-HCB2 + kLC1, caninised anti-NGF antibody with canine IgG heavy chain isotype B (antibody, V domains shown)
VH: B2 VH
VL: B1 VL
notes: caN heavy chain variable domain (first caninised alphaD11 VH); as the light chain variable domain of m1 (caN-kLC1); canine kappa light chain constant domain; Canine IgG-B, kappa; also called caN-HCB-kLC; type B anti-NGF antibody; source: CHO cells, transient transfection, supernatant; purified on protein A
B5: caN-HCC1 + kLC1, caninised anti-NGF antibody with canine IgG heavy chain isotype C (antibody, V domains shown)
VH: B2 VH
VL: B1 VL
notes: caN heavy chain variable domain (first caninised alphaD11 VH); as the light chain variable domain of m1 (caN-kLC1); canine kappa light chain constant domain; Canine IgG-C, kappa; also called caN-HCC-kLC; type C anti-NGF antibody; source: CHO cells, transient transfection, supernatant; purified on Protein G

What was measured:
[1] = target: T1, mouse nerve growth factor (muNGF) (Mus musculus, UniProt P01139); experiment: cell-based or functional assay
T1 sequence (P01139 122-241): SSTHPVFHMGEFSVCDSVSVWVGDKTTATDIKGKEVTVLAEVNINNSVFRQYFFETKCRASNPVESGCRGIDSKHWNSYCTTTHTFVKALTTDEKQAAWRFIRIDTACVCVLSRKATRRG

[2] = target: T1, mouse nerve growth factor (muNGF); experiment: SPR; ProteOn XPR36, GLM chip; muNGF amine-coupled (50 ug/mL, sodium acetate pH 4.5); NV-01 passed over at 500, 250, 125, 62.5 and 31.25 nM for 60 s; Langmuir fit; details: both partners purified
[3] = target: T1, mouse nerve growth factor (muNGF); experiment: ELISA; plates coated with NGF (0.1 ug/ml muNGF; canine NGF in Figure 2A), blocked with 5% BSA/PBS; CHO cell supernatants with canine anti-NGF IgG 1 h at room temperature in PBS/1% BSA; detected with rabbit anti-canine IgG-HRP; details: one partner purified
[4] = target: T2, canine nerve growth factor with a C-terminal poly-His tag (Canis lupus familiaris, UniProt A0A8I3PYI3); experiment: as above; details: one partner purified
T2 construct: canine beta NGF, expressed from a cDNA that encodes canine pre-pro beta NGF; the mature form is surmised; also called canine NGF; caNGF; source: HEK293 cells, transient transfection, purified from supernatant (Ni-HiTrap); not shown: poly-His, C-terminal, kept

Binder	IC50 of inhibition of NGF-induced proliferation of TF-1 cells (1 ng/ml NGF; NV-01 2.5 ng/ml to 0.002 ng/ml); blocked: NGF and its receptor on TF-1 cells [1]	Kd [2]	binding result [3]	binding result [4]
B1	0.02 ng/mL	< 1 pM	–	–
B2	–	–	binds	–
B3	–	–	binds	–
B4	–	–	binds	binds
B5	–	–	binds	–
